The labels stand for the following.
B1: CPEB3 Ribozyme (parent)
chain: GGGGGCCACAGCAGAAGCGUUCACGUCGCGGCCCCUGUCAGAUUCUGGUGAAUCUGCGAAUUCUGCUGU

The variants in this data set derive from B1. The data set is described as follows: self-cleavage, relative activity (ratio to wild type); higher = more cleavage; co-transcriptional.
For the variant G41A C66G, the self-cleavage is 0.429. Take G41U U44G: the self-cleavage amounted to 0.336. The result for G41U U44A reads 0.339; that for A40U U62A, 0.436. Consider A40U U62C, for which the self-cleavage is 0.351. For A40U U62G, the self-cleavage was 0.426. G41U A51G: the self-cleavage is 0.837. The figure for G41U A51U is 0.609. The result for G41C U67A reads 0.716. The result for G41C U67G reads 0.787. In the case of G41U C45A, the self-cleavage came out at 0.422. For the variant G41U C45G, the self-cleavage is 0.47.

For the variant A40G A60G, the self-cleavage was determined as 0.859. For the variant A40G A60C, the self-cleavage was determined as 0.329. For A40G A60U, the self-cleavage worked out at 0.486. For the variant G41C A51C, the self-cleavage was 0.43. The result for G41C A51U reads 0.542; that for G41U U53C, 0.364; that for G41U U53G, 0.604.

Consider G41A G50A, for which the self-cleavage turned out to be 0.707. Consider A40U U67G, for which the self-cleavage is 0.886. The figure for A40U U67C is 0.845; for A40U U67A it is 0.776; for A42C G68C it is 0.963.

Turning to A42C G68A, the self-cleavage amounted to 1. The figure for A42C G68U is 1.01. For G41C U43C, the self-cleavage was 0.486. The figure for G41C U43A is 0.31; for G41C U43G it is 0.25; for G41U G56A it is 0.581. The figure for G41A C54U is 0.961; for G41A C54G it is 0.861; for G41A C63G it is 0.348. The result for G41A C63U reads 0.59; that for A40C U61A, 0.304; that for A40C U61G, 0.192. On to A40C U61C, for which the self-cleavage was determined as 0.339. The result for A42C C63A reads 0.547. The result for A42C C63G reads 0.542; that for A40U A60C, 0.235. In the case of A40U A60U, the self-cleavage is 0.41. The figure for A40U G50A is 0.731. In the case of A40U G50C, the self-cleavage was determined as 0.643. The figure for G41C C45U is 0.501. The result for G41C C45A reads 0.34; that for G41C C45G, 0.38; that for A40U U44G, 0.623. In the case of A40U U44C, the self-cleavage is 0.262.

G41C U46A: the self-cleavage is 0.921.

As to G41C U69G, the self-cleavage was 0.959. The result for G41C U69C reads 1.01; that for G41U U55G, 0.324; that for G41A U44G, 0.307.

For the variant A40G U67G, the self-cleavage turned out to be 0.965. The result for A40G U67C reads 0.901; that for A42C G58C, 1.04; that for A40C G65A, 0.387. The result for A40C G65C reads 0.332; that for A40U G65C, 0.304.

Regarding A40U G65U, the self-cleavage stood at 0.405. Consider A40U G65A, for which the self-cleavage was determined as 0.352. The result for G41A U46C reads 0.706; that for G41A U46A, 0.863; that for G41C U61C, 0.241. The figure for G41C U61G is 0.345; for G41U U62C it is 0.384. The result for G41U U62A reads 0.506; that for A40G G47U, 1.02. As to A40G G47A, the self-cleavage was 0.987. The figure for A40C U53G is 0.15.

Turning to A40C U53C, the self-cleavage came out at 0.219. The result for A40C U53A reads 0.311; that for G41U G65A, 0.438; that for G41U G65U, 0.366. Take A40U C66A: the self-cleavage stood at 0.397. In the case of A40U C66G, the self-cleavage was found to be 0.325. Regarding A40U C66U, the self-cleavage turned out to be 0.729. In the case of A40U G41A, the self-cleavage is 0.537. The figure for A40U G56A is 0.818.

G41U C63U: the self-cleavage turned out to be 0.691. The result for A42C C45A reads 0.851; that for A42C C45U, 0.937; that for A42C C45G, 0.819. As to A42C, the self-cleavage was 0.961. The figure for G41A A59C is 0.358; for G41A G56C it is 0.31. The result for G41A G56U reads 0.307; that for G41A C45U, 0.677; that for G41C G47A, 0.904. Turning to G41A U61G, the self-cleavage amounted to 0.331.

G41A U61A: the self-cleavage came to 0.463.

On to G41C A59C, for which the self-cleavage is 0.225. The figure for G41C A59G is 0.845. As for G41C A42U, the self-cleavage turned out to be 0.504. The figure for G41C A42C is 0.26; for G41C C57U it is 0.329; for A40G G65A it is 0.756.

A40G G65C: the self-cleavage was found to be 0.434. The figure for G41U G50C is 0.54; for G41U G48C it is 0.952; for G41U G48U it is 0.99.

As to G41U G58A, the self-cleavage came to 0.935. The figure for G41U G58C is 0.94; for G41U G58U it is 0.939. The result for G41C C63A reads 0.296; that for G41C G68C, 0.902. The result for G41C G68U reads 0.933; that for G41C G68A, 0.927; that for A40U U49A, 0.922.

For A40U U49C, the self-cleavage is 0.757. For the variant A40U U49G, the self-cleavage came out at 0.816. The result for G41A G47C reads 0.913. Turning to G41U U67C, the self-cleavage stood at 0.872. The result for A40G G41A reads 0.706.

Take A40G G41U: the self-cleavage was 0.722.

Consider A40G G41C, for which the self-cleavage stood at 0.433. The figure for A42C A51G is 0.852. As to A40G G50U, the self-cleavage was determined as 0.971. The figure for A40G G50A is 0.918.

A40G G50C: the self-cleavage amounted to 0.943.

As for A40G C54U, the self-cleavage came to 0.952. The result for A42C C66G reads 0.661; that for A42C C66U, 0.96; that for G41U A52G, 0.749. With G41U A52C, the self-cleavage is 0.431.

Take A40U G48U: the self-cleavage came out at 0.936. For A40U G48C, the self-cleavage is 0.893. In the case of A40U A59U, the self-cleavage is 0.459. The result for A40U A59G reads 0.887. As to A40U U46C, the self-cleavage came out at 0.716. The figure for A40U U46A is 0.919; for A40U U46G it is 0.878. The figure for A40U C57G is 0.366; for A40U U69G it is 0.987. On to A40U U69A, for which the self-cleavage turned out to be 0.964.

As to A40U U69C, the self-cleavage was determined as 1. The result for G41A G68C reads 0.881. For G41A G68U, the self-cleavage is 0.913. The result for A40C U49A reads 0.679; that for A40C U49G, 0.658. The result for A40C U49C reads 0.584; that for A40G A42U, 0.763. In the case of A40G A42G, the self-cleavage turned out to be 0.822. Regarding A40U U43A, the self-cleavage was 0.306. The result for A40U U43C reads 0.485; that for G41C G58A, 0.772; that for A40G U64A, 0.759. For A40G U53A, the self-cleavage came to 0.759. The figure for A40G U53C is 0.649; for A40G U53G it is 0.813.

A40G C45U: the self-cleavage was 0.933. On to A40G C45A, for which the self-cleavage is 0.884.

For the variant G41A U64C, the self-cleavage was 0.385. The figure for G41A U64G is 0.501; for A40G U46A it is 0.971. The result for A40G U46C reads 0.942; that for A40G U46G, 0.977; that for A40U A51U, 0.61. The figure for A40U A51G is 0.842. For the variant A40U A51C, the self-cleavage stood at 0.564. The result for A40U C45A reads 0.629. The result for A40U C45U reads 0.799. The result for A40U C45G reads 0.744. Consider G41A U67G, for which the self-cleavage turned out to be 0.777.

As to G41A U67A, the self-cleavage stood at 0.756.

Turning to A40G C66A, the self-cleavage turned out to be 0.54.

Consider A40G C66U, for which the self-cleavage was 0.982.

(Values after the RNAGym collection of RNA variant scans (doi:10.7554/elife.80360).)
